The target of experiment [1] is T1, Homo sapiens AXL-Mus musculus Ig2 domain (p33-AXL-mIg2) (human-mouse chimera, UniProt P30530 26-894).
T1 construct: Expressed in HEK293F cells; also called hsAXL-mmIg2; TH1021-mIg2
T1 chain: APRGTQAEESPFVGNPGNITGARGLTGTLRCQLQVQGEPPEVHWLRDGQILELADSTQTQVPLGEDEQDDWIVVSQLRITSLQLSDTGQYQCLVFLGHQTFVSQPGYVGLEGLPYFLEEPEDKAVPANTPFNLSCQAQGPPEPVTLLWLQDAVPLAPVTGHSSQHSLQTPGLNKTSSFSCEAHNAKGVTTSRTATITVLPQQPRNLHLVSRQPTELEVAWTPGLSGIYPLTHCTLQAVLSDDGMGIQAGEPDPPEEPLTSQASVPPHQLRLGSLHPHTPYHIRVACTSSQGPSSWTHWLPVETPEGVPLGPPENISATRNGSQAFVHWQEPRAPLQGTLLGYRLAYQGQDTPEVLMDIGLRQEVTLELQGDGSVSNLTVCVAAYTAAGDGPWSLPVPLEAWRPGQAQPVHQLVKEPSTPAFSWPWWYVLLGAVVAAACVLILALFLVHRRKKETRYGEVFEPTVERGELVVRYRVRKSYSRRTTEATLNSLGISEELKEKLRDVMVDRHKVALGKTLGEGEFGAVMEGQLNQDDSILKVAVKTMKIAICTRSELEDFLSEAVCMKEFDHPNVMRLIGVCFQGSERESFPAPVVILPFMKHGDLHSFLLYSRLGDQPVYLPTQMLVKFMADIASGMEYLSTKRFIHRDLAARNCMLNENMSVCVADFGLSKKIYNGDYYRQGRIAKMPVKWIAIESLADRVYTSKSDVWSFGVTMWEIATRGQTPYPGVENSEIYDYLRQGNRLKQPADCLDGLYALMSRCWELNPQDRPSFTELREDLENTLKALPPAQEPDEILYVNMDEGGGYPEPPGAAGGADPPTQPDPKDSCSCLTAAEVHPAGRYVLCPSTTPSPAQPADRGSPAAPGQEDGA
The experiment can be described thus: flow cytometry, 1 µg/mL antibody, transfected HEK293F cells.

The target of experiment [2] is T2, human AXL (full length) (human, UniProt P30530 26-894).
T2 construct: also called TH1021-AXL; TH1021-hAXL
Kind of experiment: flow cytometry, A431 cells, no Gas6. On the technique in general: Flow cytometry measures light scatter and fluorescence of single cells or particles in a stream.

Experiment [3] deals with T3, Homo sapiens AXL-Mus musculus FN2 domain (p33-AXL-mFN2) (human-mouse chimera, UniProt P30530 26-894).
T3 construct: Expressed in HEK293F cells; also called hsAXL-mmFN2; TH1021-mFN2
T3 chain: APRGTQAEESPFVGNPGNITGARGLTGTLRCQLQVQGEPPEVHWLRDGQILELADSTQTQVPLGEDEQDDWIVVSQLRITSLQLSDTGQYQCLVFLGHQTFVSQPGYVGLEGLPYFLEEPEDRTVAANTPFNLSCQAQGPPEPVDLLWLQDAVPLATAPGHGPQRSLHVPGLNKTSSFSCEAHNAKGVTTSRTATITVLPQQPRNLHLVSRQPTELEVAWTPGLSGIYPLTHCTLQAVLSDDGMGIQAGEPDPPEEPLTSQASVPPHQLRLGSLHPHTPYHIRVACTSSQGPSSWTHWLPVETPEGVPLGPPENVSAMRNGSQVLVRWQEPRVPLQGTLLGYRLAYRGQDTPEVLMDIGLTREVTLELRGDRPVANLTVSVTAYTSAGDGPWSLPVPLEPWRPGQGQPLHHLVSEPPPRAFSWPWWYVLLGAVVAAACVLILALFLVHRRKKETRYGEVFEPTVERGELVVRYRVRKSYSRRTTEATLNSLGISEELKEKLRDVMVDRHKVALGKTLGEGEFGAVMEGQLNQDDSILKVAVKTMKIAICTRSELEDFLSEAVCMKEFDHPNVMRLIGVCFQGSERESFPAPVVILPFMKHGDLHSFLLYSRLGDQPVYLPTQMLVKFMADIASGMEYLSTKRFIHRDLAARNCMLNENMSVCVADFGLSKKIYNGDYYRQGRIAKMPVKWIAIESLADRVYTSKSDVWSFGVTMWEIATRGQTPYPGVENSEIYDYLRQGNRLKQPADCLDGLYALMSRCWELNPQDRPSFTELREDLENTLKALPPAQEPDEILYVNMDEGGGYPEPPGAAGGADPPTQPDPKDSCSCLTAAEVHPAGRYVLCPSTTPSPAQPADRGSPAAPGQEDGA
Kind of experiment: flow cytometry, 1 µg/mL antibody, transfected HEK293F cells.

Experiment [4] deals with T4, Homo sapiens AXL-Mus musculus FN1 domain (p33-AXL-mFN1) (human-mouse chimera, UniProt P30530 26-894).
T4 construct: Expressed in HEK293F cells; also called hsAXL-mmFN1; TH1021-mFN1
T4 chain: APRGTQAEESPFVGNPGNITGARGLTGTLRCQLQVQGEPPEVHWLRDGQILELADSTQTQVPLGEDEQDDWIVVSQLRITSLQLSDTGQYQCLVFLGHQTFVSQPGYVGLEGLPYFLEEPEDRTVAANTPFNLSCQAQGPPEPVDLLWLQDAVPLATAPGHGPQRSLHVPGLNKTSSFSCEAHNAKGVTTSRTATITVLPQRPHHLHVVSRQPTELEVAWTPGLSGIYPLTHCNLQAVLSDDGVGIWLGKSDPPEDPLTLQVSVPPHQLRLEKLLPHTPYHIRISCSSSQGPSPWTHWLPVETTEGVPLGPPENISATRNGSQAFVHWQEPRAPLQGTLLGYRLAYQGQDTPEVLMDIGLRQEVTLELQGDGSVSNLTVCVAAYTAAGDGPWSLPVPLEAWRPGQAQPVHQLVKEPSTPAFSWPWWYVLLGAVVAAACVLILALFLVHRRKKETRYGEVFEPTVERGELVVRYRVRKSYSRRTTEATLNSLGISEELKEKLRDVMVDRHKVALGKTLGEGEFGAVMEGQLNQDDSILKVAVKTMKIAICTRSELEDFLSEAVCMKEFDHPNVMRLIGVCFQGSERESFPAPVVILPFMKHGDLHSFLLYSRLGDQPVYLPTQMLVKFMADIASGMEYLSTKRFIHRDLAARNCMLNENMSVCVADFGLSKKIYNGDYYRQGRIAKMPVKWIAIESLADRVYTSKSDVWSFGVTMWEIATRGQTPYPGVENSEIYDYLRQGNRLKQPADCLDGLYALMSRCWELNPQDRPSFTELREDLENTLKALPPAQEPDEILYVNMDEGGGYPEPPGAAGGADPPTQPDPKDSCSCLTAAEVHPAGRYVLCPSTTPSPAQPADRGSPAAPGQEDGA
The description is as above.

Experiment [5] has as its target T2, human AXL (full length). Kind of experiment: flow cytometry, A431 cells pre-incubated with 10 µg/mL Gas6 (competitor).
The target in experiment [6] is T2, human AXL (full length). The experiment can be described thus: flow cytometry, Gas6 titrated on A431 cells pre-incubated with 10 µg/mL IgG1-AXL-154 (competitor).
For experiment [7], the target named is T2, human AXL (full length). The experiment can be described thus: flow cytometry, Gas6 titrated on A431 cells pre-incubated with 10 µg/mL YW327.6S2 (competitor); value less accurate due to low binding.
For experiment [8], the target named is T2, human AXL (full length). Kind of experiment: flow cytometry, Gas6 titrated on A431 cells pre-incubated with 10 µg/mL IgG1-AXL-613 (competitor).
Experiment [9] deals with T2, human AXL (full length). The experiment can be described thus: flow cytometry, Gas6 titrated on A431 cells pre-incubated with 10 µg/mL IgG1-AXL-511 (competitor).
In experiment [10] the target is T2, human AXL (full length). The experiment can be described thus: flow cytometry, A431 cells pre-incubated with medium only; Gas6 detected with mouse anti-Gas6 and FITC anti-mouse IgG.
In experiment [11] the target is T2, human AXL (full length). Kind of experiment: flow cytometry, Gas6 titrated on A431 cells pre-incubated with 10 µg/mL YW327.6S2 (competitor); value less accurate due to low binding. The source holds these as a separate data set.
The target of experiment [12] is T2, human AXL (full length). Kind of experiment: flow cytometry, Gas6 titrated on A431 cells pre-incubated with 10 µg/mL control antibody b12.
The target of experiment [13] is T2, human AXL (full length). The experiment can be described thus: flow cytometry, Gas6 titrated on A431 cells pre-incubated with 10 µg/mL IgG1-AXL-613 (competitor). The source holds these as a separate data set.
In experiment [14] the target is T2, human AXL (full length). The experiment can be described thus: flow cytometry, Gas6 titrated on A431 cells pre-incubated with 10 µg/mL IgG1-AXL-107 (competitor).
In experiment [15] the target is T2, human AXL (full length). The experiment can be described thus: flow cytometry, Gas6 titrated on A431 cells pre-incubated with 10 µg/mL control antibody b12. The source holds these as a separate data set.
Experiment [16] has as its target T2, human AXL (full length). The experiment can be described thus: flow cytometry, Gas6 titrated on A431 cells pre-incubated with 10 µg/mL IgG1-AXL-726 (competitor).
For experiment [17], the target named is T2, human AXL (full length). Kind of experiment: flow cytometry, Gas6 titrated on A431 cells pre-incubated with 10 µg/mL IgG1-AXL-148 (competitor).
Experiment [18] addresses T2, human AXL (full length). Kind of experiment: flow cytometry, Gas6 titrated on A431 cells pre-incubated with 10 µg/mL IgG1-AXL-107 (competitor). The source holds these as a separate data set.
Experiment [19] deals with T2, human AXL (full length). The experiment can be described thus: flow cytometry, Gas6 titrated on A431 cells pre-incubated with 10 µg/mL IgG1-AXL-733 (competitor).
Experiment [20] concerns the target T2, human AXL (full length). The experiment can be described thus: flow cytometry, Gas6 titrated on A431 cells pre-incubated with 10 µg/mL IgG1-AXL-171 (competitor).
Experiment [21] addresses T2, human AXL (full length). The experiment can be described thus: flow cytometry, Gas6 titrated on A431 cells pre-incubated with 10 µg/mL IgG1-AXL-183 (competitor).

Results on 2 molecules are retold here after patent US20180326084A1 (Genmab, published 2018).

B1: IgG1-AXL-061 (antibody, V domains shown)
VH: QVQLVQSGAEVKKPGASVKVSCKASGYAFTGYGISWVRQAPGQGLEWIGWISAYNGNTNYVQNLQDRVTMTTDTSTSTAYMELRSLRSDDTAVYYCARDHISMLRGIIIRNYWGQGTLVTVSS
VL: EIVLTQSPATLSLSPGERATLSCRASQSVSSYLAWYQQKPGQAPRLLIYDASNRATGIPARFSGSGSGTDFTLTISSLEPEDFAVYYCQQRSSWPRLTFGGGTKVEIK
For the molecule B1, the binding result in experiment [1], in experiment [3] and in experiment [4] was “binds” each time. For the same molecule, the 50% effective concentration (EC50) (in general, the midpoint of the concentration-response curve) in the experiment with human AXL (full length) [2] came out at 0.15 µg/mL. The “maximal binding in presence of Gas6 (% of binding in absence of Gas6)” value with human AXL (full length) [5] came to 43%.

B2: recombinant human Gas6 (ligand, UniProt Q14393 49-678, looked up)
chain: AFQVFEEAKQGHLERECVEELCSREEAREVFENDPETDYFYPRYLDCINKYGSPYTKNSGFATCVQNLPDQCTPNPCDRKGTQACQDLMGNFFCLCKAGWGGRLCDKDVNECSQENGGCLQICHNKPGSFHCSCHSGFELSSDGRTCQDIDECADSEACGEARCKNLPGSYSCLCDEGFAYSSQEKACRDVDECLQGRCEQVCVNSPGSYTCHCDGRGGLKLSQDMDTCEDILPCVPFSVAKSVKSLYLGRMFSGTPVIRLRFKRLQPTRLVAEFDFRTFDPEGILLFAGGHQDSTWIVLALRAGRLELQLRYNGVGRVTSSGPVINHGMWQTISVEELARNLVIKVNRDAVMKIAVAGDLFQPERGLYHLNLTVGGIPFHEKDLVQPINPRLDGCMRSWNWLNGEDTTIQETVKVNTRMQCFSVTERGSFYPGSGFAFYSLDYMRTPLDVGTESTWEVEVVAHIRPAADTGVLFALWAPDLRAVPLSVALVDYHSTKKLKKQLVVLAVEHTALALMEIKVCDGQEHVVTVSLRDGEATLEVDGTRGQSEVSAAQLQERLAVLERHLRSPVLTFAGGLPDVPVTSAPVTAFYRGCMTLEVNRRLLDLDEAAYKHSDITAHSCPPVEPAAA
notes: Bought reagent; also called hGas6; Growth Arrest-Specific 6
As to B2, the EC50 came out at 0.44 µg/mL with human AXL (full length) [6]; 5.53 µg/mL with human AXL (full length) [7]; 0.57 µg/mL in the experiment with human AXL (full length) [8]; 0.74 µg/mL with human AXL (full length) [9]; 5.53 µg/mL in the experiment with human AXL (full length) [11]; 0.4 µg/mL with human AXL (full length) [12]. Further, the EC50 with human AXL (full length) [13] turned out to be 0.57 µg/mL; with human AXL (full length) [14], 0.78 µg/mL; with human AXL (full length) [15], 0.4 µg/mL; in the experiment with human AXL (full length) [16], 0.77 µg/mL; with human AXL (full length) [17], 0.73 µg/mL; with human AXL (full length) [18], 0.78 µg/mL. For the same molecule, the EC50 with human AXL (full length) [19] turned out to be 0.83 µg/mL; in the experiment with human AXL (full length) [20], 0.69 µg/mL; with human AXL (full length) [21], 0.34 µg/mL. The EC50 (read off the curve) – broadly, the concentration giving half of the maximal effect – with human AXL (full length) [10] is around 0.1 µg/mL.
